Measurements taken from PMC2953525, “Subtle Alterations in PCNA-Partner Interactions Severely Impair DNA Replication and Repair” (PLoS Biology, 2010).

Tests used:
[1] = target: T1, pol30-79 (yeast, UniProt P15873 1-258, IDCL DIDADFLKIEEL to DIDADFAKAEEL); assay: two-hybrid; quantitative Y2H: generation time of the YRG2 strains in liquid SC-Leu-Trp-His, given relative to cells expressing WT PCNA; average of at least 3 experiments; conditions: partners not purified
T1 construct: PCNA (POL30), yeast; the changes are then L126A and I128A; also called PCNA79; source: yeast two-hybrid fusion (pAD-GAL4, strain YRG2)
T1 sequence: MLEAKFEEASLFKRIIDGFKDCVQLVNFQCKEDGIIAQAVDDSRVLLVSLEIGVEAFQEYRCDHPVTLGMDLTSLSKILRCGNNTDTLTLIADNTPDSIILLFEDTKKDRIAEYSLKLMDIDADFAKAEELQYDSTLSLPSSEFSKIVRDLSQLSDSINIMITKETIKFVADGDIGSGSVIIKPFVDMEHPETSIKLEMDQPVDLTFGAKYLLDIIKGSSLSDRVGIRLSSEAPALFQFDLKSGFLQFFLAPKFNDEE

[2] = target: T2, pol30-Rad30E9 (yeast, UniProt P15873 1-258, IDCL DIDADFLKIEEL to DNDWDFLKIDEL); assay: as above; conditions: partners not purified
T2 construct: PCNA (POL30), yeast; also called Pol30-Rad30E9p; source: yeast two-hybrid fusion (pAD-GAL4, strain YRG2)
T2 sequence: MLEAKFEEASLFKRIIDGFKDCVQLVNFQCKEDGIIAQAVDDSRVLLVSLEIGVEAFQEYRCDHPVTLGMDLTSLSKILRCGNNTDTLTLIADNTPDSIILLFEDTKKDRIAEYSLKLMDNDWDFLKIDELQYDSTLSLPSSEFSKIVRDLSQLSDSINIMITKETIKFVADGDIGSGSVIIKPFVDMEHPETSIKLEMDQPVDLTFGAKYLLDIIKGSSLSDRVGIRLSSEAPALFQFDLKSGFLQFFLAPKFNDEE

[3] = target: T3, pol30-Rad27E6 (yeast, UniProt P15873 1-258, IDCL DIDADFLKIEEL to DGDYDILKIREL); assay: as above; conditions: partners not purified
T3 construct: PCNA (POL30), yeast; source: yeast two-hybrid fusion (pAD-GAL4, strain YRG2)
T3 sequence: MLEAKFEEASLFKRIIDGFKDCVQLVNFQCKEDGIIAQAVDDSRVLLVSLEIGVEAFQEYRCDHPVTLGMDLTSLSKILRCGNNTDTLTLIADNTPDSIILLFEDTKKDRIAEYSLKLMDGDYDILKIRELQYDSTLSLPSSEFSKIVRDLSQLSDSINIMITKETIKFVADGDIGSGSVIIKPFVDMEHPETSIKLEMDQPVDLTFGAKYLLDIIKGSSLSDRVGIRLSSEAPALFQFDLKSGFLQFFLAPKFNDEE

[4] = target: T4, pol30-Rad27L2 (yeast, UniProt P15873 1-258, IDCL DIDADFLKIEEL to D––VDTLKITEL); assay: as above; conditions: partners not purified
T4 construct: PCNA (POL30), yeast; two residues after the first aspartic acid of the IDCL are deleted; source: yeast two-hybrid fusion (pAD-GAL4, strain YRG2)
T4 sequence: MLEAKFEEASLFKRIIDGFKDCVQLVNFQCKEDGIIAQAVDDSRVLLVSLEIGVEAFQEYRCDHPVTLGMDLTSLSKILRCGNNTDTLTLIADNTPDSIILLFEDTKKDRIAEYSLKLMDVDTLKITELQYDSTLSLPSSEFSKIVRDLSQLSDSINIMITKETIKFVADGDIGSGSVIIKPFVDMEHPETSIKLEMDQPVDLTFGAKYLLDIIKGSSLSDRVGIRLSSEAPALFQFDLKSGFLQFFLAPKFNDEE

[5] = tested on: PCNA-Rad30 complex; assay: ELISA for PCNA-partner complexes extracted from yeast cells; format: binding; conditions: ELISA of yeast extracts, GFP signal normalized to immobilized PCNA signal; averages of at least 5 independent repeats
From the text: (§1) To examine whether increased PCNA-partner interaction affinities result in increased PCNA-partner complex formation in vivo in pol30 mutant strains, we analyzed the levels of these complexes extracted from yeast cells. We used strains expressing the pol30 mutants as a sole source of PCNA in the cell under the control of the native POL30 promoter (see below). We immobilized PCNA from the crude yeast extracts onto ELISA plates and analyzed the amount of bound partner, relative to the amount of total PCNA immobilized on the plate (Figure 4).
(§2) Figure 4 Increased levels of in vivo PCNA-partner complex formation in the pol30-Rad30E2 or the pol30-Rad27E6 mutant strains, relative to the POL30 strain. (A). ELISA experimental set-up for the detection of PCNA-partner complexes extracted directly from WT and mutant PCNA strains. The assay is based on the immobilization of PCNA-partner complex using anti-PCNA antibody-coated ELISA plates. Detection of complex levels is performed using antibodies against the GFP fused to the C-terminal of the PCNA partner. […]
(§3) Yeast cell extracts were generated from 0.5 L of logarithmic cultures using conventional methods. […] Following centrifugation, cell extracts were collected and protein concentration was determined by the BCA method. […] PCNA-partner complex levels were calculated as the ratio of the GFP signal to the PCNA signal detected for the same cell extract. […]

[6] = tested on: PCNA-Rad27 complex; assay: as above; format: binding; conditions: ELISA of yeast extracts, GFP signal normalized to immobilized PCNA signal; averages of at least 5 independent repeats
From the text: as §1, §2, §3

B1: Rad27 (natural protein, yeast, UniProt P26793 1-382, looked up)
chain: MGIKGLNAIISEHVPSAIRKSDIKSFFGRKVAIDASMSLYQFLIAVRQQDGGQLTNEAGETTSHLMGMFYRTLRMIDNGIKPCYVFDGKPPDLKSHELTKRSSRRVETEKKLAEATTELEKMKQERRLVKVSKEHNEEAQKLLGLMGIPYIIAPTEAEAQCAELAKKGKVYAAASEDMDTLCYRTPFLLRHLTFSEAKKEPIHEIDTELVLRGLDLTIEQFVDLCIMLGCDYCESIRGVGPVTALKLIKTHGSIEKIVEFIESGESNNTKWKIPEDWPYKQARMLFLDPEVIDGNEINLKWSPPKEKELIEYLCDDKKFSEERVKSGISRLKKGLKSGIQGRLDGFFQVVPKTKEQLAAAAKRAQENKKLNKNKNKVTKGRR
notes: Rad27 (endonuclease), yeast; also called pBD-Rad27; source: yeast two-hybrid fusion (pBD-GAL4, strain YRG2)
**Q.** With B1 as the molecule, how does the “fold change in affinity relative to WT PCNA (Y2H generation time)” value [1] read?
**A.** 0.5 fold

**Q.** What about the “fold change in affinity relative to WT PCNA (Y2H generation time)” value [2] of the same molecule?
**A.** 0.5 fold

**Q.** And the “fold change in affinity relative to WT PCNA (Y2H generation time)” value [3]?
**A.** 1.5 fold

**Q.** What about the “fold change in affinity relative to WT PCNA (Y2H generation time)” value [4] of the same molecule?
**A.** 1.5 fold

B2: pol30-Rad30E2: PCNA mutant evolved for Rad30, IDCL sequence DDDWDFLKILEL (protein)
chain: MLEAKFEEASLFKRIIDGFKDCVQLVNFQCKEDGIIAQAVDDSRVLLVSLEIGVEAFQEYRCDHPVTLGMDLTSLSKILRCGNNTDTLTLIADNTPDSIILLFEDTKKDRIAEYSLKLMDDDWDFLKILELQYDSTLSLPSSEFSKIVRDLSQLSDSINIMITKETIKFVADGDIGSGSVIIKPFVDMEHPETSIKLEMDQPVDLTFGAKYLLDIIKGSSLSDRVGIRLSSEAPALFQFDLKSGFLQFFLAPKFNDEE
modifications: left off: Gal4 activation domain, end not stated, kept
**Q.** B2 was tested. Which “increase in PCNA-Rad30 complex formation relative to the POL30 WT strain” value [5] did it give?
**A.** 70%

B3: pol30-Rad27E6: PCNA mutant evolved for Rad27, IDCL sequence DGDYDILKIREL (protein)
chain: MLEAKFEEASLFKRIIDGFKDCVQLVNFQCKEDGIIAQAVDDSRVLLVSLEIGVEAFQEYRCDHPVTLGMDLTSLSKILRCGNNTDTLTLIADNTPDSIILLFEDTKKDRIAEYSLKLMDGDYDILKIRELQYDSTLSLPSSEFSKIVRDLSQLSDSINIMITKETIKFVADGDIGSGSVIIKPFVDMEHPETSIKLEMDQPVDLTFGAKYLLDIIKGSSLSDRVGIRLSSEAPALFQFDLKSGFLQFFLAPKFNDEE
modifications: left off: Gal4 activation domain, end not stated, kept
**Q.** How did the “increase in PCNA-Rad27 complex formation relative to the POL30 WT strain” value [6] turn out when B3 was run?
**A.** 17%
